Where a chain is given by its changes, count along the chain named. Names may count otherwise. Blank lines part the entries; values can stand above or below the binder they belong to.
Columns and labels:
[1] = target: T1, soluble human plexin A1 (hsPlexin A1) (human, UniProt Q9UIW2 27-1243); experiment: Biacore, antibody on protein A/G, hsPlexin A1 analyte, 37C, pH 7.4
T1 construct: range 27-1243
Method: (§1) Assay was carried out using 10 mmol/l ACES/150 mmol/l NaCl containing 0.05% Surfactant P20 (pH 7.4 and pH 6.0) as a running buffer. […] Assays were carried out at 37 degrees C. The assay results were analyzed using Biacore T100 Evaluation Software (GE Healthcare), and the association rate constant, ka (1/Ms), and the dissociation rate constant, kd (1/s), were calculated from the assay results. Then the KD (M) was calculated from ka and kd (Table 15). Furthermore, the pH-dependent binding was evaluated to calculate the KD ratio between pH 7.4 and pH 6.0 for each antibody.

[2] = target: T1, soluble human plexin A1 (hsPlexin A1); experiment: Biacore, antibody on protein A/G, hsPlexin A1 analyte, 37C, pH 6.0
Method: as §1

[3] = target: T2, soluble human FcRn (complex of FcRn and beta2-microglobulin) (human, UniProt P55899 24-297; P61769 21-119); experiment: Biacore steady-state, antibody immobilized, pH 6.0, 25C
T2 construct: Secreted from HEK293H
Method: (§2) The antibodies were tested as a test substance after direct immobilization onto Series S Sensor Chip CM5. Using an amino-coupling kit according to the supplier's instruction manual, the antibodies were immobilized onto Sensor Chip so as to secure an immobilization amount of 500 RU. The running buffer used was 50 mmol/l Na-phosphate/150 mmol/l NaCl containing 0.05% (v/v %) Surfactant P20 (pH 6.0).
(§3) With the prepared sensor chips, assay was carried out using as a running buffer, 50 mmol/l Na-phosphate/150 mmol/l NaCl containing 0.05% Surfactant P20 (pH 6.0) or 50 mmol/l Na-phosphate/150 mmol/l NaCl containing 0.05% Surfactant P20 (pH 7.4). Assays were carried out exclusively at 25 degrees C. The diluted human FcRn solutions and running buffer as a reference solution were injected at a flow rate of 5 microliter/min for ten minutes to allow for human FcRn to interact with the antibody on the chip. Next, the running buffer was injected at a flow rate of 5 microliter/min for one minute to monitor the dissociation of FcRn. […]
(§4) The assay results were analyzed using Biacore T100 Evaluation Software (Ver. 2.0.1). By a steady-state affinity method, the dissociation constant (KD) was calculated from the assay results at six different FcRn concentrations.

[4] = target: T2, soluble human FcRn (complex of FcRn and …); experiment: Biacore steady-state, antibody immobilized, pH 6.0, 25C; pH 6.0
Method: as §2, §3, §4

[5] = target: T2, soluble human FcRn (complex of FcRn and …); experiment: Biacore steady-state, antibody immobilized, pH 7.4, 25C; pH 7.4
Method: as §2, §3, §4

[6] = target: T2, soluble human FcRn (complex of FcRn and …); experiment: Biacore steady-state, antibody immobilized, pH 7.4, 25C
Method: as §2, §3, §4

[7] = target: T2, soluble human FcRn (complex of FcRn and …); experiment: Biacore pH 7.0
Method: (§5) The binding between antibody and human FcRn was kinetically analyzed using Biacore T100 (GE Healthcare). […] An appropriate amount of protein L (ACTIGEN) was immobilized onto Sensor chip CM4 (GE Healthcare) by the amino coupling method, and the chip was allowed to capture an antibody of interest. Then, diluted FcRn solutions and running buffer (as a reference solution) were injected to allow human FcRn to interact with the antibody captured on the sensor chip. The running buffer used comprised 50 mmol/l sodium phosphate, 150 mmol/l NaCl, and 0.05% (w/v) Tween20 (pH 7.0). FcRn was diluted using each buffer. The chip was regenerated using 10 mmol/l glycine-HCl (pH 1.5). Assays were carried out exclusively at 25 degrees C. The association rate constant ka (1/Ms) and dissociation rate constant kd (1/s), both of which are kinetic parameters, were calculated based on the sensorgrams obtained in the assays, and KD (M) of each antibody for human FcRn was determined from these values. Each parameter was calculated using Biacore T100 Evaluation Software (GE Healthcare).

[8] = target: T2, soluble human FcRn (complex of FcRn and …); experiment: Biacore pH 7.0; remark: listed apart in the source
Method: as §5

[9] = target: T2, soluble human FcRn (complex of FcRn and …); experiment: Biacore pH 7.0; remark: listed apart in the source
Method: as §5

[10] = target: T2, soluble human FcRn (complex of FcRn and …); experiment: Biacore pH 7.0; remark: listed apart in the source
Method: as §5

[11] = target: T3, human IL-6 (TORAY) (human, UniProt P05231 30-212, limits assumed); experiment: Biacore, antibody on protein A/G, IL-6 analyte, 37C, pH 7.4
T3 construct: also called hIL-6
Method: (§6) Assay was carried out using 10 mmol/l ACES/150 mmol/l NaCl containing 0.05% Surfactant P20 (pH 7.4 and pH 6.0) as a running buffer. After antibodies were bound to recombinant proteinA/G (Thermo Scientific) immobilized on sensor chips using an amino-coupling method, appropriate concentrations of human IL-6 (TORAY) as an analyte were injected. Assays were carried out at 37 degrees C. The assay results were analyzed using Biacore T100 Evaluation Software (GE Healthcare), and the association rate constant, ka (1/Ms), and the dissociation rate constant, kd (1/s), were calculated from the assay results. […] Furthermore, the pH-dependent binding was evaluated to calculate the KD ratio between pH 7.4 and pH 6.0 for each antibody.

[12] = target: T3, human IL-6 (TORAY); experiment: Biacore, antibody on protein A/G, IL-6 analyte, 37C, pH 5.5
Method: as §6

[13] = target: T2, soluble human FcRn (complex of FcRn and …); experiment: Biacore pH 7.0 (Example 9 method)
Method: (§7) The binding between antibody and human FcRn was kinetically analyzed using Biacore T100 (GE Healthcare). An appropriate amount of protein L (ACTIGEN) was immobilized onto Sensor chip CM4 (GE Healthcare) by the amine-coupling method, and the chip was allowed to capture an antibody of interest. Then, diluted FcRn solutions and running buffer as a reference solution were injected to allow for human FcRn to interact with the antibody captured on the sensor chip. The running buffer used comprised 50 mmol/l sodium phosphate, 150 mmol/l NaCl, and 0.05% (w/v) Tween20 (pH 7.0). FcRn was diluted using each buffer. The chip was regenerated using 10 mmol/l glycine-HCl (pH 1.5). Assays were carried out at 25 degrees C.
(§8) KD (M) of each antibody was derived from the sensorgram data using Biacore T100 Evaluation Software (GE Healthcare), which simultaneously fits the association and dissociation phases of the sensorgrams and globally fits all curves in the working set. Sensorgrams were fit to 1:1 binding model, the “Langmuir binding” model, supplied by Biacore T100 Evaluation Software. For some of the binding interactions, KD was derived by nonlinear regression analysis of plots of Req, the equilibrium binding response, versus the log of the analyte concentration using an equilibrium-based approach.

[14] = target: T2, soluble human FcRn (complex of FcRn and …); experiment: Biacore pH 7.0 (Example 9 method); remark: listed apart in the source
Method: as §7, §8

T1 sequence (Q9UIW2 other isoform, or with tags, fused parts or gaps limits assumed): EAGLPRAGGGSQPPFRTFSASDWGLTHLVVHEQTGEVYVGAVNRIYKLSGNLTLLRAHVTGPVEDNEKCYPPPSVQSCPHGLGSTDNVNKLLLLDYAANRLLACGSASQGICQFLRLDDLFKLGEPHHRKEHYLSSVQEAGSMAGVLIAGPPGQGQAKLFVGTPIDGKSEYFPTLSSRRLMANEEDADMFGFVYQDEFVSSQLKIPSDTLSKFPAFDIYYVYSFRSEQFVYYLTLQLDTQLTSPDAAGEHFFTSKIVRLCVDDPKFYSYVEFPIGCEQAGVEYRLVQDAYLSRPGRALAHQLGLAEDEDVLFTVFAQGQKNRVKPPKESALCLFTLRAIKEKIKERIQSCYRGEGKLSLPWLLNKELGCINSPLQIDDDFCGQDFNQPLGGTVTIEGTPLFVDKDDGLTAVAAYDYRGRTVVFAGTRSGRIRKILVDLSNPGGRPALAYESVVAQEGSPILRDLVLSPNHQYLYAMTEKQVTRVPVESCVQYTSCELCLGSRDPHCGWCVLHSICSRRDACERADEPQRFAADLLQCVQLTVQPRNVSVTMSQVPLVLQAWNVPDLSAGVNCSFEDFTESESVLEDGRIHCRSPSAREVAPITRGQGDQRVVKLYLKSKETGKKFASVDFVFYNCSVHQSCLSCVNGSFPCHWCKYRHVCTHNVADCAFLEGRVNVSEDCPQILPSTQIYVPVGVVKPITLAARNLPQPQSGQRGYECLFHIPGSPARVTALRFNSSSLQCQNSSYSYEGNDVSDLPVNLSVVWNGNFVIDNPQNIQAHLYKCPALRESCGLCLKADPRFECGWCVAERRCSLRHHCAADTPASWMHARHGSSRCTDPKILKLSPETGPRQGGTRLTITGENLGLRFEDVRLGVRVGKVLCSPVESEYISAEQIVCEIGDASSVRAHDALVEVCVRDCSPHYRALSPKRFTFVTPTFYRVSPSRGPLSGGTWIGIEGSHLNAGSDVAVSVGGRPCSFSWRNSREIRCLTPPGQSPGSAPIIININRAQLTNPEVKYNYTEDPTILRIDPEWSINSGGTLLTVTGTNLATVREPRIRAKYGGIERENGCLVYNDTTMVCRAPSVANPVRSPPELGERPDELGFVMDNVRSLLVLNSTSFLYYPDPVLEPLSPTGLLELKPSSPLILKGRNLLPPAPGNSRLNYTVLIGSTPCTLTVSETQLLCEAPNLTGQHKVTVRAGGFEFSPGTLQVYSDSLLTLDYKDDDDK

- Kd [1]: 5.4 nM
- koff [1]: 0.00028 s⁻¹
- kon [1]: 52000 M⁻¹ s⁻¹
- Kd [2]: 4.4 nM
- koff [2]: 0.00027 s⁻¹
- kon [2]: 63000 M⁻¹ s⁻¹
B1: PX268-IgG1 (antibody, V domains shown)
VH: QSLEESGGDLVKPGASLTLTCTASGFSFSSNYWIYWVRQAPGKGLEWIACIYIGSDSAYYASWAKGRFTISKTSSTTVTLQMTSLTAADTATYFCARWDNSGRALKLWGPGTLVTVSS
VL: QMLTQTASPVSAAVGGTVTIKCQSSQSVADNNHLSWYQQKPGQPPKLLIYFASTLASGVSSRFKGSGSGTQFTLTISDVQCDDAATYYCLGNYDCGSADCHAFGGGTEVVVKR
notes: chimeric anti-plexin A1 antibody

- Kd [3]: 1990 nM
B2: Fv4-IgG1 (antibody)
heavy: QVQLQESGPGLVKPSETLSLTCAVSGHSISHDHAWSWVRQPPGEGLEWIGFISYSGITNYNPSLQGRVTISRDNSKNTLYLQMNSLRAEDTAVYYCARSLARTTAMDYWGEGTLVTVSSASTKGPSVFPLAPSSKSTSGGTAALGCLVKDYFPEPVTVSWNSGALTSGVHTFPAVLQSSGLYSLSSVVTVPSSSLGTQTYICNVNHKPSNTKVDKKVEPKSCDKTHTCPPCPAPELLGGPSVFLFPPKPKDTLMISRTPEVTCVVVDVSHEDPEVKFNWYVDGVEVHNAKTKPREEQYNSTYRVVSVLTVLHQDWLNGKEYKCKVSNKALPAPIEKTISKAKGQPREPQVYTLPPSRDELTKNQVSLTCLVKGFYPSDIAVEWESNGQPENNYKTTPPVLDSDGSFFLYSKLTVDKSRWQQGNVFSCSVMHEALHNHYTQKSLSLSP
light: DIQMTQSPSSLSASVGDSVTITCQASTDISSHLNWYQQKPGKAPELLIYYGSHLLSGVPSRFSGSGSGTDFTFTISSLEAEDAATYYCGQGNRLPYTFGQGTKVEIERTVAAPSVFIFPPSDEQLKSGTASVVCLLNNFYPREAKVQWKVDNALQSGNSQESVTEQDSKDSTYSLSSTLTLSKADYEKHKVYACEVTHQGLSSPVTKSFNRGEC
notes: VH3-IgG1 and VL3-CK; copies: 2 + 2

- Kd [4]: 320 nM
- Kd [5]: 36600 nM
B3: Fv4-IgG1-v1 (antibody)
heavy: QVQLQESGPGLVKPSETLSLTCAVSGHSISHDHAWSWVRQPPGEGLEWIGFISYSGITNYNPSLQGRVTISRDNSKNTLYLQMNSLRAEDTAVYYCARSLARTTAMDYWGEGTLVTVSSASTKGPSVFPLAPSSKSTSGGTAALGCLVKDYFPEPVTVSWNSGALTSGVHTFPAVLQSSGLYSLSSVVTVPSSSLGTQTYICNVNHKPSNTKVDKKVEPKSCDKTHTCPPCPAPELLGGPSVFLFPPKPKDTLYITREPEVTCVVVDVSHEDPEVKFNWYVDGVEVHNAKTKPREEQYNSTYRVVSVLTVLHQDWLNGKEYKCKVSNKALPAPIEKTISKAKGQPREPQVYTLPPSRDELTKNQVSLTCLVKGFYPSDIAVEWESNGQPENNYKTTPPVLDSDGSFFLYSKLTVDKSRWQQGNVFSCSVMHEALHNHYTQKSLSLSP
light: B2 light
notes: copies: 2 + 2

- Kd [6]: 11000 nM
- Kd [3]: 110 nM
B4: Fv4-IgG1-v2 (antibody)
heavy: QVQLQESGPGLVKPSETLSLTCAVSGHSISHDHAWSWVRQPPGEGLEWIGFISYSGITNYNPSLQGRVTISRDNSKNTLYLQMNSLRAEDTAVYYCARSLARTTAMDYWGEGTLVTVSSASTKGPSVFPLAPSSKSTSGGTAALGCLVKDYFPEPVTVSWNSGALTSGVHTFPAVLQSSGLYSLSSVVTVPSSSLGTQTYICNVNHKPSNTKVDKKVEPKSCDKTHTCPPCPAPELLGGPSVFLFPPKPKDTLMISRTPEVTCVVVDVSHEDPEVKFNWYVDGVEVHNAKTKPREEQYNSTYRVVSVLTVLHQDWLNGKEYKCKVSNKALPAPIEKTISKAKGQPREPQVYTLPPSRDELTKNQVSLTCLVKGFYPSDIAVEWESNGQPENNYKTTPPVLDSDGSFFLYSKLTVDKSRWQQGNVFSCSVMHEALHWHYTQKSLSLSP
light: B2 light
notes: copies: 2 + 2

- Kd [7]: 170 nM
B5: IgG1-F162 (antibody)
heavy: B3 heavy with Y254W, T256S, E258T, M430Y, N436Y
light: not shown
notes: copies: 2 + 2

- Kd [8]: 29 nM
B6: IgG1-F311 (antibody)
heavy: B3 heavy with S241K, Y254W, T256S, E258T, V310P, M430F, N436Y
light: not shown
notes: copies: 2 + 2

- Kd [9]: 10 nM
B7: IgG1-F379 (antibody)
heavy: B3 heavy with S241K, Y254W, T256S, V310P, Q313A, M430Y, N436Y
light: not shown
notes: copies: 2 + 2

- Kd [9]: 51 nM
B8: IgG1-F403 (antibody)
heavy: B3 heavy with Y254M, T256S, E258T, P259V, T309A, M430E, N436W
light: not shown
notes: M428E as printed; may be a misprint of M428L; copies: 2 + 2

- Kd [10]: 25 nM
B9: IgG1-F455 (antibody)
heavy: B3 heavy with Y254M, T256S, E258T, P259V, T309Q, M430Y, N436Y
light: not shown
notes: copies: 2 + 2

- Kd [8]: 20 nM
B10: IgG1-F292 (antibody)
heavy: B3 heavy with S241K, T256S, E258T, V310P, E384A, M430I, N436Y
light: not shown
notes: copies: 2 + 2

- Kd [9]: 9.5 nM
B11: IgG1-F376 (antibody)
heavy: B3 heavy with S241K, T256S, D272F, N288E, V310P, N436Y
light: not shown
notes: copies: 2 + 2

- Kd [8]: 18 nM
B12: IgG1-F308 (antibody)
heavy: B3 heavy with S241K, Y254W, T256S, E258T, V310P, E384A, M430Y, N436Y
light: not shown
notes: copies: 2 + 2

- Kd [7]: 350 nM
B13: IgG1-F163 (antibody)
heavy: B3 heavy with Y254W, T256S, E258T, M430F, N436Y
light: not shown
notes: copies: 2 + 2

- Kd [1]: 4.2 nM
- koff [1]: 0.00064 s⁻¹
- kon [1]: 150000 M⁻¹ s⁻¹
- Kd [2]: 63 nM
- koff [2]: 0.0049 s⁻¹
- kon [2]: 79000 M⁻¹ s⁻¹
B14: PX141-IgG1 (antibody, V domains shown)
VH: QEQLEESGGGLVKPEGSLTLTCKASGFDFSSYYYMCWVRQAPGKGLEWIGCIVTGSYGRSWYASWAKGRFTITRSTSLNTVTLQLNSLTAADTATYFCARDPFVIASSHYQNLWGPGTLVTVSS
VL: ALVMTQTPSPVSAAVGGTVTISCQSSPNIYNNYLSWYQQKPGQPPKLLIYRASNLETGVPSRFSGSGSGTQFTLTISDVQCDDAATYYCAGYKSYDNDDNAFGGGTEVVVKR
notes: chimeric anti-plexin A1 antibody, pH-dependent

- Kd [11]: 0.22 nM
- koff [11]: 0.0008 s⁻¹
- kon [11]: 3.6e+06 M⁻¹ s⁻¹
- Kd [12]: 0.18 nM
- koff [12]: 0.00066 s⁻¹
- kon [12]: 3.7e+06 M⁻¹ s⁻¹
B15: CLB8-IgG1 (antibody, V domains shown)
VH: EVQLVESGGKLLKPGGSLKLSCAASGFTFSSFAMSWFRQSPEKRLEWVAEISSGGSYTYYPDTVTGRFTISRDNAKNTLYLEMSSLRSEDTAMYYCARGLWGYYALDYWGQGTSVTVSS
VL: QIVLIQSPAIMSASPGEKVTMTCSASSSVSYMYWYQQKPGSSPRLLIYDTSNLASGVPVRFSGSGSGTSYSLTISRMEAEDAATYYCQQWSGYPYTFGGGTKLEIKR
notes: chimeric anti-IL-6 antibody

- Kd [11]: 2.2 nM
- koff [11]: 0.0046 s⁻¹
- kon [11]: 2.1e+06 M⁻¹ s⁻¹
- Kd [12]: 16 nM
- koff [12]: 0.0059 s⁻¹
- kon [12]: 370000 M⁻¹ s⁻¹
B16: H16/L13-IgG1 (antibody, V domains shown)
VH: B15 VH with F32H, Y60H, D62H, Y103H
VL: B15 VL with N52H, L53H, Q88H, Y93H
notes: chimeric anti-IL-6 antibody, pH-dependent

- Kd [13]: 14000 nM
- Kd [14]: 14000 nM
B17: VH3/L (WT)-M73 (antibody)
heavy: QVQLQESGPGLVKPSETLSLTCAVSGHSISHDHAWSWVRQPPGEGLEWIGFISYSGITNYNPSLQGRVTISRDNSKNTLYLQMNSLRAEDTAVYYCARSLARTTAMDYWGEGTLVTVSSASTKGPSVFPLAPSSKSTSGGTAALGCLVKDYFPEPVTVSWNSGALTSGVHTFPAVLQSSGLYSLSSVVTVPSSNFGTQTYTCNVDHKPSNTKVDKTVERKSCVECPPCPAPPVAGPSVFLFPPKPKDTLMISRTPEVTCVVVDVSQEDPEVQFNWYVDGVEVHNAKTKPREEQFNSTFRVVSVLTVVHQDWLNGKEYKCKVSNKGLPAPIEKTISKTKGQPREPQVYTLPPSQEEMTKNQVSLTCLVKGFYPSDIAVEWESNGQPENNYKTTPPMLDSDGSFFLYSKLTVDKSRWQEGNVFSCSVMHEALHAHYTQKSLSLSP
light: not shown
notes: copies: 2 + 2
